Experimental findings from patent US20140234331A1 (published 2014) are described below.

Test [1] has as its target Macaque CTLA-4 expressed on transfected T-cells (macaque). Put plainly: flow cytometry (FACScan) on cell line expressing recombinant macaque CTLA-4.
For test [2], the target named is T1, Recombinant CTLA-4 fusion protein comprising the extracellular domain of human CTLA-4 (R&D Systems Cat. … (human, UniProt P16410 36-161)).
T1 construct: extracellular domain; Bought protein; also called recombinant human CTLA-4 fusion protein; soluble CTLA-4; not shown: Factor Xa cleavage site and fusion partner (called Ig)
T1 sequence (looked up): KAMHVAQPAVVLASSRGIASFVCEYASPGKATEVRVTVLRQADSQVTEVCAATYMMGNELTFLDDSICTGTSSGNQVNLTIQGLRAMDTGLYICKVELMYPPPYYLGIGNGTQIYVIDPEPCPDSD
The experiment in a line: competitive ELISA with biotin labeled and unlabeled antibodies. An excerpt: Competitive ELISAs were done with biotin labeled and unlabeled antibodies to determine CTLA-4 epitope specificity. Four anti-CTLA-4 epitope binding groups were identified among the human antibodies, and an additional two epitopes were defined by the commercial murine monclonal antibodies BNI3 (Pharmingen, San Diego, Calif.), and 8H5 (Ancell Corp. Bayport, Minn.).

For isotype control (Table 5) (antibody), the MFI in test [1] is 4 MFI.

B1: 1E2 (human anti-CTLA-4 monoclonal antibody) (antibody, V domains shown)
VH: QVQLVESGGGVVQPGRSLRLSCAASGFTFSSYGMHWVRQAPGKGLEWVAVIWYDGSNKYYADSVKGRFTISRDNSKNTLYLQMNSLRAEDTAVFYCARAPNYIGAFDVWGQGTMVTVSS
VL: DIQMTQSPSSLSASVGDRVTITCRASQGISSWLAWYQQKPEKAPKSLIYAASSLQSGVPSRFSGSGSGTDFTLTISSLQPEDFATYYCQQYNSYPPTFGQGTKVEIK
As to B1, the binding result in test [2] is “binds”.
